According to US20140179896A1 (published 2014):

Biological target: T1, human vascular endothelial growth factor receptor-2 Fc chimera (KDR-Fc) (human, UniProt P35968 20-764)
T1 construct: range 1-764; also called human VEGFR-2; VEGF-R2-Fc; not shown: human IgG1 Fc
Assay: radioactive equilibrium binding, 1 nM KDR-Fc
Protocol: To prepare ³⁵S-labeled binding proteins for analysis, mRNA was prepared as described above for RNA-protein fusion production but the linker ligation step was omitted. The mRNA was expressed using rabbit reticulocyte lysate translation kit (Ambion) in the presence of ³⁵S-labeled Met at 30° C. for 1 hour. Expressed protein was purified on M2-agarose Flag beads (Sigma) as described above. This procedure produced the encoded protein without the nucleic acid tail. In a direct binding assay, VEGF-R2-Fc fusions in concentrations ranging from 0 to 200 nM were added to a constant concentration of the purified protein (0.2 or 0.5 nM) and incubated at 30° C. for 1 hour in buffer B. The receptor-binder complexes were captured using Protein A magnetic beads for another 10 minutes at room temperature using a Kingfisher™ The beads were washed with six reaction volumes of buffer B. The protein was eluted from the beads with 100 μL of 0.1 M KOH. […] of the reaction mixture and elution were dried onto a LumaPlate-96 (Packard) and the amount of ³⁵S on the plate was measured using a TopCount NXT instrument (Packard). The amount of fibronectin-based scaffold protein bound to the target was estimated as a percent of radioactivity eluted from Protein A magnetic beads compare to radioactivity in the reaction mixture. Nonspecific binding of fibronectin-based scaffold proteins to the beads was determined by measuring binding in the absence of KDR-Fc and represented less than 1-2% of the input. Specific binding was obtained through subtraction of nonspecific binding from total binding. Data was analyzed using the GraphPad Prizm software (GraphPad Software, Inc, San Diego, Calif.), fitted using a one site, non-linear binding equation.

T1 sequence (P35968 20-764 limits assumed, change not shown, form in doubt): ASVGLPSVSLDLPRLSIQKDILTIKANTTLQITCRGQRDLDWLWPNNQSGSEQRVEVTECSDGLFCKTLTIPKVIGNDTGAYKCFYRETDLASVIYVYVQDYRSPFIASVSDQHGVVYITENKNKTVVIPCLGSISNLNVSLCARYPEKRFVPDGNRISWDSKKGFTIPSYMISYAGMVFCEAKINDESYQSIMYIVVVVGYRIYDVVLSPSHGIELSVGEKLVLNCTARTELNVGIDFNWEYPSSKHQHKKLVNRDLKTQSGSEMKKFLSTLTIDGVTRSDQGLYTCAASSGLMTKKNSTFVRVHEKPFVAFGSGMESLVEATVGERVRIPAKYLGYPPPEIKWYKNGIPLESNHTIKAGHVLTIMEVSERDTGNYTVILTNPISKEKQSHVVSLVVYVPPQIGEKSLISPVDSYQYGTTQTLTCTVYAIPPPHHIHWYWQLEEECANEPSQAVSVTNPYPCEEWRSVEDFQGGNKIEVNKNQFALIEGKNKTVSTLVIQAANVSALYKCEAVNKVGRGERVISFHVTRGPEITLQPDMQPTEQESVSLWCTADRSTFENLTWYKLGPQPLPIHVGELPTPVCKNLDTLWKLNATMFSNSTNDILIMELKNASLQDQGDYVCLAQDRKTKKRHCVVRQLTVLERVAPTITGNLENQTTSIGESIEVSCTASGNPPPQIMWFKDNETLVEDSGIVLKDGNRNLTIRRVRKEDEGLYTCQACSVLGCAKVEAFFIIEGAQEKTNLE

Binder	Binding to 1 nM KDR, % [%]
2′DelC3 PR4 (designed binder, Del 1-8) EVVAATPTSLLISWRHPHFPTRYYRITYGETGGNSPVQEFTVPLQPPTATISGLKPGVDYTITGYAVTWAQNGRELLTPISINYRT	29
3′B4 PR4 (designed binder, Del 1-8) EVVAATPTSLLISWRHPHFPTRYYRITYGETGGNSPVQEFTVPLQPPTATISGLKPGVDYTITGYAVTVAWNGHELMTPISINYRT	38
3′C3 PR4 (designed binder, Del 1-8) EVVAATPTSLLISWRHPHFPTRYYRITYGETGGNSPVQEFTVPLQPPTATISGLKPGVDYTITGYAVTMAQNGHALFTPISINYRT	32
2′DelH4 PR4 (designed binder, Del 1-8) EVVAATPTSLLISWRHPHFPTRYYRITYGETGGNSPVQEFTVPLQPPTATISGLKPGVDYTITGYAVTVGPNERMLMTPISINYRT	30
3G2 PR3 (designed binder, Del 1-8) EVVAATPTSLLISWRHPHFPTRYYRITYGETGGNSPVQEFTVPLQPPTATISGLKPGVDYTITGYAVTFGPSDHVLLTPISINYRT	20
3′D2 PR4 (designed binder, Del 1-8) EVVAATPTSLLISWRHPHFPTRYYRITYGETGGNSPVQEFTVPLQPPTATISGLKPGVDYTITGYAVTVESNGHALFVPISINYRT	19
3′D3 PR4 (designed binder, Del 1-8) EVVAATPTSLLISWRHPHFPTRYYRITYGETGGNSPVQEFTVPLQPPTATISGLKPGVDYTITGYAVTPGPGDRELITPISINYRT	42
3′C6 PR4 (designed binder, Del 1-8) EVVAATPTSLLISWRHPHFPTRYYRITYGETGGNSPVQEFTVPLQPPTATISGLKPGVDYTITGYAVTMGPNDRELLTPISINYRT	37
3′D8 PR4 (designed binder, Del 1-8) EVVAATPTSLLISWRHPHFPTRYYRITYGETGGNSPVQEFTVPLQPPTATISGLKPGVDYTITGYAVTAGPNDHQLFTPISINYRT	27
3F8 PR3 (designed binder, Del 1-8) EVVAATPTSLLISWRHPHFPTRYYRITYGETGGNSPVQEFTVPLQPPTATISGLKPGVDYTITGYAVTVAQNGHELKTPISINYRT	17
2′DelE4 PR4 (designed binder, Del 1-8) EVVAATPTSLLISWRHPHFPTRYYRITYGETGGNSPVQEFTVPLQPPTATISGLKPGVDYTITGYAVTVHWNGHELMTPISINYRT	34
3A3 PR3 (designed binder, Del 1-8) EVVAATPTSLLISWRHPHFPTRYYRITYGETGGNSPVQEFTVPLQPPTATISGLKPGVDYTITGYAVTLAYNGREIITPISINYRT	23
3C9 PR3 (designed binder, Del 1-8) EVVAATPTSLLISWRHPHFPTRYYRITYGETGGNSPVQEFTVPLQPPTATISGLKPGVDYTITGYAVTLVRNDHELLTPISINYRT	16
2′DelH9 PR4 (designed binder, Del 1-8) EVVAATPTSLLISWRHPHFPTRYYRITYGETGGNSPVQEFTVPLQPPTATISGLKPGVDYTITGYAVTVGWSGHELFVPISINYRT	20
3′B8 PR4 (designed binder, Del 1-8) EVVAATPTSLLISWRHPHFPTRYYRITYGETGGNSPVQEFTVPLQPPTATISGLKPGVDYTITGYAVTLGYHDHALFTPISINYRT	14
3′B11 PR4 (designed binder, Del 1-8) EVVAATPTSLLISWRHPHFPTRYYRITYGETGGNSPVQEFTVPLQPPTATISGLKPGVDYTITGYAVTETWNDHEIRTPISINYRT	23
3B5 PR3 (designed binder, Del 1-8) EVVAATPTSLLISWRHPHFPTRYYRITYGETGGNSPVQEFTVPLQPPTATISGLKPGVDYTITGYAVTFGQNGHALLTPISINYRT	20
3′A7 PR4 (designed binder, Del 1-8) EVVAATPTSLLISWRHPHFPTRYYRITYGETGGNSPVQEFTVPLQPPTATISGLKPGVDYTITGYAVTLSDSGHALFTPISINYRT	34

Binder	Binding to 1 nM KDR, % [%]
3′A6 PR4 (designed binder, Del 1-8) EVVAATPTSLLISWRHPHFPTRYYRITYGETGGNSPVQEFTVPLQPPTATISGLKPGVDYTITGYAVTLAQNGHELLTPISINYRT	19
3′B1 PR4 (designed binder, Del 1-8) EVVAATPTSLLISWRHPHFPTRYYRITYGETGGNSPVQEFTVPLQPPTATISGLKPGVDYTITGYAVTEARNGRELLTPISINYRT	25
3′B2 PR4 (designed binder, Del 1-8) EVVAATPTSLLISWRHPHFPTRYYRITYGETGGNSPVQEFTVPLQPPTATISGLKPGVDYTITGYAVTVGRNDRELLTPISINYRT	29
3C3 PR3 (designed binder, Del 1-8) EVVAATPTSLLISWRHPHFPTRYYRITYGETGGNSPVQEFTVPLQPPTATISGLKPGVDYTITGYAVTMEQNGHELFTPISINYRT	17
2′DelC7 PR4 (designed binder, Del 1-8) EVVAATPTSLLISWRHPHFPTRYYRITYGETGGNSPVQEFTVPLQPPTATISGLKPGVDYTITGYAVTWDQNGHVLLTPISINYRT	19
3F10 PR3 (designed binder, Del 1-8) EVVAATPTSLLISWRHPHFPTRYYRITYGETGGNSPVQEFTVPLQPPTATISGLKPGVDYTITGYAVTLAQDDHELLTPISINYRT	16
3B4 PR3 (designed binder, Del 1-8) EVVAATPTSLLISWRHPHFPTRYYRITYGETGGNSPVQEFTVPLQPPTATISGLKPGVDYTITGYAVTVGQNEHELLTPISINYRT	17
2′DelG5 PR4 (designed binder, Del 1-8) EVVAATPTSLLISWRHPHFPTRYYRITYGETGGNSPVQEFTVPLQPPTATISGLKPGVDYTITGYAVTVGQNNHELLTPISINYRT	19
3′B12 PR4 (designed binder, Del 1-8) EVVAATPTSLLISWRHPHFPTRYYRITYGETGGNSPVQEFTVPLQPPTATISGLKPGVDYTITGYAVTVAHENRELLTPISINYRT	28
3′C12 PR4 (designed binder, Del 1-8) EVVAATPTSLLISWRHPHFPTRYYRITYGETGGNSPVQEFTVPLQPPTATISGLKPGVDYTITGYAVTIGPNNHELLTPISINYRT	33
3′C5 PR4 (designed binder, Del 1-8) EVVAATPTSLLISWRHPHFPTRYYRITYGETGGNSPVQEFTVPLQPPTATISGLKPGVDYTITGYAVTDAMYGRELMTPISINYRT	27
3C7 PR3 (designed binder, Del 1-8) EVVAATPTSLLISWRHPHFPTRYYRITYGETGGNSPVQEFTVPLQPPTATISGLKPGVDYTITGYAVTRGLNDGELLTPISINYRT	20
3D12 PR3 (designed binder, Del 1-8) EVVAATPTSLLISWRHPHFPTRYYRITYGETGGNSPVQEFTVPLQPPTATISGLKPGVDYTITGYAVTLGQNDRQLLVPISINYRT	24
3′C8 PR4 (designed binder, Del 1-8) EVVAATPTSLLISWRHPHFPTRYYRITYGETGGNSPVQEFTVPLQPPTATISGLKPGVDYTITGYAVTEGLNDHELMIPISINYRT	19
3′B10 PR4 (designed binder, Del 1-8) EVVAATPTSLLISWRHPHFPTRYYRITYGETGGNSPVQEFTVPLQPPTATISGLKPGVDYTITGYAVTLAQTGRELLTPISINYRT	21
3′A9 PR4 (designed binder, Del 1-8) EVVAATPTSLLISWRHPHFPTRYYRITYGETGGNSPVQEFTVPLQPPTATISGLKPGVDYTITGYAVTLAHNDRELLTPISINYRT	25
3A2 PR3 (designed binder, Del 1-8) EVVAATPTSLLISWRHPHFPTRYYRITYGETGGNSPVQEFTVPLQPPTATISGLKPGVDYTITGYAVTWSQNNRELFTPISINYRT	23
3′A8 PR4 (designed binder, Del 1-8) EVVAATPTSLLISWRHPHFPTRYYRITYGETGGNSPVQEFTVPLQPPTATISGLKPGVDYTITGYAVTVAWDDHELLTPISINYRT	27
